Results published in patent publication US20150306058A1, “COMPOSITION COMPRISING A SINGLE VARIABLE DOMAIN AND CAMOSTAT MESYLATE (CM)” (Glaxo Group Limited, priority 2012, published 2015).

What was measured:
[1] = Transition midpoint (Tm) of dAbs, thermal stability (DSC); format: physicochemical
Protocol: “Transition midpoint” or “Tm” is the temperature where 50% of the single variable domain is in its native conformation and the other 50% is denatured. In an embodiment, the single variable domain has a high Tm. In particular the Tm is greater than or equal to about 66° C. The thermal stability of a single variable domain, including the Tm, may be determined using Differential Scanning calorimetry (DSC).
For these Examples, high Tm dAb™ refers to a dAb™ with a Tm of 66° C., and low Tm dAb™ refers to a dAb™ with a Tm of 56° C.

[2] = Recovery of DOM101 from gut tissue and plasma after intra-duodenal administration, TNFR1-specific MSD assay; format: in vivo, Han Wistar rats
Protocol: Han Wistar rats were dosed with 1 mg DOM101 in the presence or absence of 100 mg CM, to determine if CM preserved the dAb™ in the gastrointestinal tract. Rats were briefly anaesthetised by isoflurane anaesthetic and a midline abdominal incision made to facilitate location of the duodenum for direct intra-duodenal injection (500 μl) of the dose formulations. Following dosing, the abdominal incisions were closed and the rats allowed to recover prior to their return to study cages. Direct dosing into the duodenum bypassed the acidic conditions of the gastric juices in the stomach and allowed for direct analysis of pharmacokinetics in the intestinal tract.
Animals were culled at the following time-points: 0.5, 1.5, 3, 5, 7 and 18 hours (three animals per group).
Blood samples were taken and the intestinal tract dissected out and divided into its constituent parts: duodenum (×2), jejunum (×6), ileum, caecum, colon (×2), rectum.
(§1) Intestinal samples were homogenised using the GentleMACS™ Dissociator in lysis buffer containing detergent and protease inhibitors. Samples were screened for DOM101 using a TNFR1-specific MSD™ assay. In brief, MSD plates were coated with TNFR1-Fc. Plates were washed and blocked with bovine serum albumin. Tissue samples were diluted and added to the plate, along with a standard curve of dAb™, then incubated at room temperature to allow binding. Plates were washed and a sulfo-tag-conjugated anti-Vh antibody was added to the wells. After incubation, the plate was washed and incubated with MSD read buffer. The resulting electrochemiluminescence signal was read on a Sector Imager 6000.
Results are expressed as nanograms per gram of tissue in FIG. 6.

[3] = Recovery of DOM101 from the large intestine after intra-colonic administration; format: in vivo, Han Wistar rats; settings: 1 mg DOM101 intra-colonic
Protocol: as §1
Han Wistar rats were dosed with 1 mg DOM101 in the presence or absence of CM, to determine if camostat mesylate also preserved the dAb™ in the large intestinal tract. In brief, rats were anaesthetised by isoflurane anaesthetic, a midline abdominal incision made to facilitate location of the colon and 500 ul dose of the dose formulations injected directly into the colon. Following dosing, the abdominal incisions were loosely closed and the rats maintained under isoflurane anaesthesia and monitored for the duration of the experiment. […]
Samples were homogenised and screened as stated in Example 4. Results are expressed as nanograms per gram of tissue in FIG. 7.

[4] = 1 mg DOM101 intra-duodenal, absence of CM

B1: DOM6: domain antibody (single variable domain), Vh framework, SEQ ID NO: 4 (protein)
VHH: EVQLLESGGGLVQPGGSLRLSCAASGFTFSEGTMWWVRQAPGKGLEWVSAILAAGSNTYYADSVKGRFTISRDNSKNTLYLQMNSLRAEDTAVYYCAKKRQERDGFDYWGQGTLVTVSS
modifications: Amino acid sequence identified using molecular biology techniques.
- Tm (° C.) [1]: 55.8 °C

B2: DOM7: domain antibody (single variable domain), Vh framework, SEQ ID NO: 5 (protein)
VHH: EVQLLESGGGLVQPGGSLRLSCAASGSTFTDDRMWWVRQAPGKGLEWVSAIQPDGHTTYYADSVKGRFTISRDNSKNTLYLQMNSLRAEDTAVYYCAEQDVKGSSSFDYWGQGTLVTVSS
modifications: Amino acid sequence identified using molecular biology techniques.
- Tm (° C.) [1]: 50.6 °C

B3: DOM101: TNFR1 specific dAb, SEQ ID NO: 6 (protein)
VHH: EVQLLESGGGLVQPGGSLRLSCAASGFTFAHETMVWVRQAPGKGLEWVSHIPPDGQDPFYADSVKGRFTISRDNSKNTLYLQMNSLRAEDTAVYHCALLPKRGPWFDYWGQGTLVTVSS
modifications: Amino acid sequence identified using molecular biology techniques.
- amount of dAb detectable in the ileum (in words) [2, 4]: small amounts
- time at which dAb was detectable in the duodenum [2, 4]: 0.5 h
- time up to which dAb was detectable in the jejunum [2, 4]: up to 1.5 h
- time after dosing at which dAb was detectable throughout the GI tract ([2]; 1 mg DOM101 intra-duodenal, presence of 100 mg CM): 7 h
- level in plasma ([2]; after intra-duodenal dosing, data not shown): less than 0.1 % of the total dose
- dAb levels at 3 h in the absence of CM compared with the two CM groups (in words) ([3]; absence of CM, particularly caecum and rectum): substantially reduced
- dAb levels in caecum, colon and rectum at 0.5 h (in words) ([3]; presence or absence of CM, rectum except 10 mg camostat group): High levels

B4: DOM3: domain antibody (single variable domain), Vh framework, SEQ ID NO: 3 (protein)
VHH: EVQLLESGGGLVQPGGSLRLSCAASGFTFAHETMVWVRQAPGKGLEWVSHIPPDGQDPFYADSVKGRFTISRDNSKNTLYLQMNSLRAEDTAVYHCALLPKRGPWFDYWGQGTLVTVSS
modifications: Amino acid sequence identified using molecular biology techniques.
- Tm (° C.) [1]: 65 °C

B5: DOM2: domain antibody (single variable domain), Vh framework, SEQ ID NO: 2 (protein)
VHH: EVQLLESGGGLVQPGGSLRLSCAASGFTFRNFGMGWVRQAPGKGLEWVSWIISSGTETYYADSVKGRFTISRDNSKNTLYLQMNSLRAEDTAVYYCAKSLGRFDYWGQGTLVTVSS
modifications: Amino acid sequence identified using molecular biology techniques.
- Tm (° C.) [1]: 55.9 °C

B6: DOM1: domain antibody (single variable domain), Vκ framework, SEQ ID NO: 1 (antibody, V domains shown)
VL: DIQMTQSPSSLSASVGDRVTITCRASQDIYLNLDWYQQKPGKAPKLLINFGSELQSGVPSRFSGSGYGTDFTLTISSLQPEDFATYYCQPSFYFPYTFGQGTKVEIKR
modifications: Amino acid sequence identified using molecular biology techniques.
- Tm (° C.) [1]: 55 °C
